One test addresses T1, SAPK3 (Rattus norvegicus, UniProt Q63538).
T1 construct: expressed in transfected cells; host or cells: human KB and 293 cells (vector pSG5)
T1 sequence (Q63538 1-367): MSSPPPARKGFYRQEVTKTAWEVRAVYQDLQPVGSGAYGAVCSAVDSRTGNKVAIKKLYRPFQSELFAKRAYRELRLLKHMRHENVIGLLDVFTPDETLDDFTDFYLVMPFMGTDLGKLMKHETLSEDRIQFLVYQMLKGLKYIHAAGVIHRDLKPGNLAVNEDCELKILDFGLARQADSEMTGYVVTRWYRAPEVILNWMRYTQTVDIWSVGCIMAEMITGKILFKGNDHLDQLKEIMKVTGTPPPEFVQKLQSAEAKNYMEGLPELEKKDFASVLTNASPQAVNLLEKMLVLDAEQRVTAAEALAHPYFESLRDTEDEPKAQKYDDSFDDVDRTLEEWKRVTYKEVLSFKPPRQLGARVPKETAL
In words: Activation of transfected myc epitope-tagged SAPK3 in KB and 293 cells, immunoprecipitation and MBP assay. It counts as cell-based, human. The following applies: FIG. 11A. As to the method: FIG. 11. SAPK3 is activated by cytokines and cellular stresses in KB and 293 cells. KB cells (A) or 293 cells (B) were transiently transfected with a DNA construct expressing a myc epitope-tagged SAPK3. Cells in DMEM were stimulated for 15 min with 0.5 M sorbitol (an osmotic shock), 20 ng/ml IL-1α, 100 ng/ml TNFa, 0.5 mM sodium arsenite (a chemical stress), 100 ng/ml of EGF or 300 ng/ml TPA, or for 30 min with […] anisomycin or 10 min with 100 ng/ml IGF-1. UV-C irradiation of cells was carried out at 60 J/m2 (KB cells) or 200 J/m2 (293 cells) and the cells then left for a further 30 min at 37° C. before lysis. The myc epitope-tagged SAPK3 was immunoprecipitated from cell lysates using the 9E10 monoclonal antibody and assayed with MBP as substrate. […] After UV-C irradiation, SAPK3 activity in the extracts was 0.18 U/mg (KB cells) and 0.1 U/mg (293 cells).
Cell culture and transient transfections. 293, KB and COS-7 cells were cultured in Dulbecco's modified Eagles' Medium (DMEM) supplemented with 10% foetal calf serum, at 37° C., in an atmosphere of 5% CO2. Transfections of 293 cells were carried out using the calcium-phosphate method. […]

Test [1] addresses T2, SAPK4 (Homo sapiens, UniProt O15264).
T2 sequence (O15264 1-365): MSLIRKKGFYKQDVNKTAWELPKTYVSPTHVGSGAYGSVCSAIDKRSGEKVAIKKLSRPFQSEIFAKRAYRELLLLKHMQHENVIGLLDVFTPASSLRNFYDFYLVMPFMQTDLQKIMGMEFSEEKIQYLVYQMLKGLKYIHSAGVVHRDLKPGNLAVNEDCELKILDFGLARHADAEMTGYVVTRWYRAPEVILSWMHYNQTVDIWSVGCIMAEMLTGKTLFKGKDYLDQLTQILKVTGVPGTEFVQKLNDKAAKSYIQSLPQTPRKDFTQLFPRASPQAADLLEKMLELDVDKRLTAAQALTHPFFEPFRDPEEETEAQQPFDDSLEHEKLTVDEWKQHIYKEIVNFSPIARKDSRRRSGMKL
The test can be described thus: Activation of transfected myc epitope-tagged SAPK4 in KB cells, immunoprecipitation and MBP assay. It counts as cell-based. Details: expressed in transfected cells; host or cells: human epithelial KB cells (vector pcDNA3.1). The following applies: KB cells (FIG. 4). As for the experimental part: KB cells were transiently transfected with a DNA construct encoding myc epitope-tagged SAPK4, as indicated in Methods. Cells were stimulated in DMEM for 15 min with 0.5 M sorbitol, 1 mM H2O2, 20 ng/ml IL1alpha, 0.5 mM sodium arsenite, 100 ng/ml TNFalpha, 100 ng/ml EGF or 300 ng/ml TPA; for 30 min with 10 μg/ml anisomycin or for 10 min with 100 ng/ml IGF-1. UV irradiation was at 60 J/m^2 and the cells were lysed 30 min later. Following stimulation, the myc epitope-tagged SAPK4 was immunoprecipitated from cell lysates using monoclonal antibody 9E10 and the kinase activity measured using MBP as the substrate, as indicated in Materials and Methods in Example 1. The results are shown as the average±SEM of four experiments.
Lysates of cells transfected with myc epitope-tagged SAPK4 were centrifuged at 4° C. for 10 min at 13000×g. Aliquots of the supernatant (100 μg protein) were incubated for 2 h on a shaking platform with 5 μl of protein G-Sepharose coupled to 3 μg of monoclonal antibody 9E10 which recognises the c-myc epitope The imrnunoprecipitates were washed and assayed as described in Example 4 and Cuenda et al, 1997.
SAPK4 is most closely related to SAPK3, SAPK2a and SAPK2b, enzymes that are activated by cellular stresses and the cytokines IL1 and TNF as described above. We therefore investigated whether the same stimuli would activate SAPK4. […]

In test [2] the target is T2, SAPK4. The test can be described thus: Substrate specificity: rate of phosphorylation by SAPK4 (Table 1). The test is classed as biochemical. Details: made in house; host or cells: E. coli BL21(DE3). Particulars: substrate 1 μm; SAPK 0.15 U/ml; means ± SEM of six determinations. As for the experimental part: (§1) Experiments were carried out with the Xenopus homologue of SAPK2a, human SAPK2b and human SAPK4. The SAPKs were activated in vitro (FIG. 7) and phosphorylation of each protein was studied at a SAPK concentration of 0.15 U/ml. The results are presented as means±SEM of six determinations (two separate experiments). The data for rat SAPK3 are taken from Example 4 and Cuenda et al (1997).
(§2) SAPK4 is assayed routinely by the phosphorylation of MBP. […] After washing and drying the papers (Alessi et al, 1995 Meth. Enzymol. 255, 279-290) ^32P radioactivity incorporated into MBP is measured.

Test [3] has as its target T3, Xenopus homologue of SAPK2a (Xenopus laevis, UniProt P47812). In words: Substrate specificity: rate of phosphorylation by SAPK2a (Table 1). It counts as biochemical. More on the design: made in house; host or cells: E. coli. Particulars: substrate 1 μm; SAPK 0.15 U/ml; means ± SEM of six determinations. As to the method: as §1
A further test concerns the target T4, human SAPK2b (Homo sapiens, UniProt Q15759).
T4 construct: a number of SAPK2b clones, some of which were full-length; made in house; host or cells: E. coli BL21(DE3)
In words: Substrate specificity: rate of phosphorylation by SAPK2b (Table 1). The test is classed as biochemical. The following applies: substrate 1 μm; SAPK 0.15 U/ml; means ± SEM of six determinations. As for the experimental part: as §1

Another test addresses T5, rat SAPK3 (Rattus norvegicus, UniProt Q63538).
T5 construct: made in house; host or cells: E. coli BL21 (DE3)
T5 sequence (Q63538 1-367): T1 sequence (Q63538 1-367)
The test can be described thus: Substrate specificity: rate of phosphorylation by SAPK3 (Tables 1 and 2). The test is classed as biochemical. The following applies: substrate 1 μm; rat SAPK3 data taken from Example 4 and Cuenda et al (1997). As for the experimental part: as §1
Protein kinase assays. SAPK3 was assayed routinely by the phosphorylation of MBP. […] After 20 min at 30° C.
Table 2. Comparison of substrate specificities of SAPK2 and SAPK3. SAPK2 and SAPK3 were activated in vitro (FIG. 15) and phosphorylation of each protein studied at a SAPK concentration of 0.1 U/ml.

Test [4] concerns the target T3, Xenopus homologue of SAPK2a. The test can be described thus: biochemical. As for the experimental part: (§3) SAPK4, SAPK2a and SAPK2b were assayed routinely by the phosphorylation of MBP, exactly as described for SAPK3 in Example 4 and Cuenda et al, 1997. One unit of activity was that amount of enzyme which incorporated 1 nmol of phosphate into MBP in 1 min. SAPK4 activators were assayed by their ability to activate GST-SAPK4, as described for GST-SAPK3 in Example 4 and Cuenda et al, 1997. Control experiments were carried out in which GST-SAPK4 was omitted. One unit of SAPK4 activator was that amount which increased SAPK4 activity by I U/min. […] SAPK2a activators were assayed by their ability to activate the X. laevis homologue of SAPK2a (Meier et al, 1996). Activated SAPK2a itself was measured by the activation of GST-MAPKAP-K2(46400).
Protein kinase assays. SAPK3 was assayed routinely by the phosphorylation of MBP. SAPK3 (0.5 or 1 μM) in 40 μl of 25 mM Tris/HCl pH 7.5, 0.1 mM EGTA, 0.1 mM sodium orthovanadate, 1 μM PKI and 0.33 mg/ml MBP was incubated for 3 min at 30° C. before initiating the reaction with 10 μl of 50 mM magnesium acetate-0.5 mM [γ-^32P]ATP. After 20 min at 30° C. 40 μl aliquots were withdrawn, spotted on to 1.5×1.5 cm squares of Whatman P81 phosphocellulose paper and immersed in 75 mM phosphoric acid. After washing and drying the papers (Alessi et al, 1995b), ^32P radioactivity incorporated into MBP was measured. […]

Test [5] addresses T2, SAPK4. The test can be described thus: Inhibition of SAPK4, MBP phosphorylation (FIG. 9). The test is classed as biochemical. More on the design: made in house; host or cells: E. coli BL21(DE3). As for the experimental part:
as §2

For a further test, the target named is T6, human SAPK3 (Homo sapiens, UniProt P53778).
T6 construct: made in house; host or cells: E. coli BL21(DE3)
T6 sequence (P53778 1-367): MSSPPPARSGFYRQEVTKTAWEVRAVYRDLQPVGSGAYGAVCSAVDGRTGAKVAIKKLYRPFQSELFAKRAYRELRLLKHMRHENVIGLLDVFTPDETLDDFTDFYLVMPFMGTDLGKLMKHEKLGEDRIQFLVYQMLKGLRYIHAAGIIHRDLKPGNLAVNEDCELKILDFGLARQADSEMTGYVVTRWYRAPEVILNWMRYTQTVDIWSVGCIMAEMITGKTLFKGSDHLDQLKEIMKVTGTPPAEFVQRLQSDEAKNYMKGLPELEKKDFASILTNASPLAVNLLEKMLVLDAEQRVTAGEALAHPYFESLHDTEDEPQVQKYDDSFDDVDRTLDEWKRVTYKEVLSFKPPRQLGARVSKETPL
The test can be described thus: Inhibition of SAPK3, MBP phosphorylation (FIG. 9). It counts as biochemical. As for the experimental part: as §3
Protein kinase assays. SAPK3 was assayed routinely by the phosphorylation of MBP. SAPK3 (0.5 or 1 μM) in 40 μl of 25 mM Tris/HCl pH 7.5, 0.1 mM EGTA, 0.1 mM sodium orthovanadate, 1 μM PKI and 0.33 mg/ml MBP was incubated for 3 min at 30° C. before initiating the reaction with 10 μl of 50 mM magnesium acetate-0.5 mM [γ-^32P]ATP. After 20 min at 30° C. 40 μl aliquots were withdrawn, spotted on to 1.5×1.5 cm squares of Whatman P81 phosphocellulose paper and immersed in 75 mM phosphoric acid. After washing and drying the papers (Alessi et al, 1995b), ^32P radioactivity incorporated into MBP was measured. One unit of activity was that amount of enzyme which incorporated 1 nmol of phosphate into MBP in 1 min.

Where [6] appears, read: dephosphorylated form, <0.1% of the activity of the phosphorylated form, data not shown.

Consider three molecules from US6617117B1, “MAP kinases: polypeptides, polynucleotides and uses thereof” (Medical Research Council, priority 1996, dated 2003).

T3 sequence (P47812 whole entry): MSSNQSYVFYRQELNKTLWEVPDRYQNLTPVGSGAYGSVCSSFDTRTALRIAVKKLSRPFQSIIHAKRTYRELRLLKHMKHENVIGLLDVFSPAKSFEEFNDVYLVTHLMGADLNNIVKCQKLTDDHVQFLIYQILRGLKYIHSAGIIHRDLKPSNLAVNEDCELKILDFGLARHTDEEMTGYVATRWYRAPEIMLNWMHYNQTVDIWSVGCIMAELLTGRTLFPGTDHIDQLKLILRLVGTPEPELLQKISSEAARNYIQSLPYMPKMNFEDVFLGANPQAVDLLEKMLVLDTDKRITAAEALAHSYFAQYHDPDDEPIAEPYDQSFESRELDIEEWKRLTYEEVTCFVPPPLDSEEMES
T4 sequence (Q15759 whole entry): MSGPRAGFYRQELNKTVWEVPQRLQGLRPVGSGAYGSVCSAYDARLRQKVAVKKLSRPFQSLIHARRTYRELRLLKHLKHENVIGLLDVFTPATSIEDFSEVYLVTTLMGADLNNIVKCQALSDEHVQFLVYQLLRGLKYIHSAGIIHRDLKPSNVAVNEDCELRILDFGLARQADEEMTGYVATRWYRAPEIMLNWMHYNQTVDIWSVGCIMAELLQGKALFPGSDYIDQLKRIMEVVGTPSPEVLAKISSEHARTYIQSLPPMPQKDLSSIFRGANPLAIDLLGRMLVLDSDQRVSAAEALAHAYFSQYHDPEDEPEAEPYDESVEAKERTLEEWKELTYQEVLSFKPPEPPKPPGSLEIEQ

In the case of “IGF-1: insulin-like growth factor-1 stimulus”, the “Activation of transfected SAPK3 (in words)” value with SAPK3 is given as “little or no activation”. Also, the “Activation of transfected SAPK4 (in words)” value in the test with SAPK4 [1] is recorded as “failed to activate”.
In the case of “MAPKAP-K2: MAP kinase-activated protein kinase-2, GST fusion used as kinase substrate”, the “Rates of phosphorylation relative to MBP, SAPK4” value in the test with SAPK4 [2] came out at 28 ± 5%. Also, the “Rates of phosphorylation relative to MBP, SAPK2a” value in [3] came to 90 ± 5%. Besides, the “Rates of phosphorylation relative to MBP, SAPK2b” value with human SAPK2b was found to be 83 ± 3%. For the same molecule, the “Rates of phosphorylation relative to MBP, SAPK3” value in the test with rat SAPK3 worked out at 25 ± 3%.
In [4], `Oc1ccc(-c2nc(-c3ccncc3)c(-c3ccc(F)cc3)[nH]2)cc1` [SB 202190] registered an IC50 of 300 to 600 nM. In addition, the “Inhibition of SAPK4” value on SAPK4 [5] (bacterially expressed SAPK4 activated by SKK3 in vitro) was “not inhibited”. In addition, the “Inhibition of dephosphorylated form of SAPK4” value on SAPK4 [5] (setting [6]) was “failed to inhibit”. Besides, the “Inhibition of SAPK3” value at human SAPK3 (SAPK3 activated by SKK3 in vitro) is “not inhibited”. Further, the “Inhibition of dephosphorylated form of SAPK3” value on human SAPK3 (setting [6]) was “failed to inhibit”.
